{
  "source": "paper PMC9352680",
  "about": "“A comprehensive thermodynamic model for RNA binding by the Saccharomyces cerevisiae Pumilio protein PUF4”",
  "binders": {"B1": {"name": "Ic_S4_P4E.1_K4.1_C4.1_H4.1_A4.1_[T5C]_[A6C]_[T7G]_F4.1_[T8C]_[A9C]_T4.1 (ssRNA)", "RNA": "UUUGACAACUGAUCGUUCUUUCUUGUACCGCCUUCUUUCUCGAUCAGUUGUCUUU"}, "B2": {"name": "Ic_S4_P4E.1_K4.1_C4.1_H4.1_A4.1_[T5C]_[A6C]_[T7C]_F4.1_[T8G]_[A9C]_T4.1 (ssRNA)", "RNA": "B1 RNA with G30C, C31G"}, "B3": {"name": "Ic_S4_P4E.1_K4.1_C4.1_H4.1_A4.1_[T5C]_[A6T]_F4.1_[A9T]_T4.1 (ssRNA)", "RNA": "B1 RNA with C29U, G30U, C31U, C32U"}, "B4": {"name": "Ic_S4_P4E.1_K4.1_C4.1_H4.1_A4.1_[T5C]_[A6T]_[T7C]_F4.1_[A9C]_T4.1 (ssRNA)", "RNA": "B1 RNA with C29U, G30C, C31U"}, "B5": {"name": "Ic_S4_P4E.1_K4.1_C4.1_H4.1_A4.1_[T5C]_[A6T]_[T7G]_F4.1_T4.1 (ssRNA)", "RNA": "B1 RNA with C29U, C31U, C32A"}, "B6": {"name": "Ic_S4_P4E.1_K4.1_C4.1_H4.1_A4.1_[T5C]_[A6C]_[T7A]_F4.1_[A9T]_T4.1 (ssRNA)", "RNA": "B1 RNA with G30A, C31U, C32U"}, "B7": {"name": "Ic_S4_P4E.1_K4.1_C4.1_H4.1_A4.1_[T5C]_[A6C]_[T7C]_F4.1_[A9C]_T4.1 (ssRNA)", "RNA": "B1 RNA with G30C, C31U"}, "B8": {"name": "Ic_S4_P4E.1_K4.1_C4.1_H4.1_A4.1_[T5C]_[A6C]_[T7A]_F4.1_[T8A]_[A9T]_T4.1 (ssRNA)", "RNA": "B1 RNA with G30A, C31A, C32U"}, "B9": {"name": "Ic_S4_P4E.1_K4.1_C4.1_H4.1_A4.1_[T5C]_[A6T]_[T7G]_F4.1_[T8G]_[A9T]_T4.1 (ssRNA)", "RNA": "B1 RNA with C29U, C31G, C32U"}, "B10": {"name": "Ic_S4_P4E.1_K4.1_C4.1_H4.1_A4.1_[T5C]_[A6T]_[T7G]_F4.1_[T8C]_T4.1 (ssRNA)", "RNA": "B1 RNA with C29U, C32A"}, "B11": {"name": "Ic_S4_P4E.1_K4.1_C4.1_H4.1_A4.1_[T5C]_[A6T]_[T7C]_F4.1_[T8A]_T4.1 (ssRNA)", "RNA": "B1 RNA with C29U, G30C, C31A, C32A"}, "B12": {"name": "Ic_S4_P4E.1_K4.1_C4.1_H4.1_A4.1_[T5C]_[A6C]_[T7C]_F4.1_[T8G]_[A9G]_T4.1 (ssRNA)", "RNA": "B1 RNA with G30C, C31G, C32G"}, "B13": {"name": "Ic_S4_P4E.1_K4.1_C4.1_H4.1_A4.1_[T5C]_[A6C]_F4.1_[T8A]_[A9C]_T4.1 (ssRNA)", "RNA": "B1 RNA with G30U, C31A"}, "B14": {"name": "Ic_S4_P4E.1_K4.1_C4.1_H4.1_A4.1_[T5C]_[A6T]_[T7G]_F4.1_[A9T]_T4.1 (ssRNA)", "RNA": "B1 RNA with C29U, C31U, C32U"}, "B15": {"name": "Ic_S4_P4E.1_K4.1_C4.1_H4.1_A4.1_[T5C]_[A6C]_F4.1_[A9T]_T4.1 (ssRNA)", "RNA": "B1 RNA with G30U, C31U, C32U"}, "B16": {"name": "Ic_S4_P4E.1_K4.1_C4.1_H4.1_A4.1_[T5C]_[A6C]_[T7A]_F4.1_[T8C]_[A9T]_T4.1 (ssRNA)", "RNA": "B1 RNA with G30A, C32U"}, "B17": {"name": "Ic_S4_P4E.1_K4.1_C4.1_H4.1_A4.1_[T5C]_[A6T]_F4.1_[T8C]_[A9C]_T4.1 (ssRNA)", "RNA": "B1 RNA with C29U, G30U"}, "B18": {"name": "Ic_S4_P4E.1_K4.1_C4.1_H4.1_A4.1_[T5C]_[T7G]_F4.1_[A9G]_T4.1 (ssRNA)", "RNA": "B1 RNA with C29A, C31U, C32G"}, "B19": {"name": "Ic_S4_P4E.1_K4.1_C4.1_H4.1_A4.1_[T5C]_[A6C]_[T7G]_F4.1_[T8C]_[A9T]_T4.1 (ssRNA)", "RNA": "B1 RNA with C32U"}, "B20": {"name": "Ic_S4_P4E.1_K4.1_C4.1_H4.1_A4.1_[T5C]_[A6C]_[T7A]_F4.1_[T8C]_T4.1 (ssRNA)", "RNA": "B1 RNA with G30A, C32A"}, "B21": {"name": "Ic_S4_P4E.1_K4.1_C4.1_H4.1_A4.1_[T5C]_[A6C]_F4.1_[T8A]_T4.1 (ssRNA)", "RNA": "B1 RNA with G30U, C31A, C32A"}, "B22": {"name": "Ic_S4_P4E.1_K4.1_C4.1_H4.1_A4.1_[T5C]_[T7G]_F4.1_[A9C]_T4.1 (ssRNA)", "RNA": "B1 RNA with C29A, C31U"}, "B23": {"name": "Ic_S4_P4E.1_K4.1_C4.1_H4.1_A4.1_[T5C]_[A6T]_[T7C]_F4.1_[T8G]_[A9T]_T4.1 (ssRNA)", "RNA": "B1 RNA with C29U, G30C, C31G, C32U"}, "B24": {"name": "Ic_S4_P4E.1_K4.1_C4.1_H4.1_A4.1_[T5C]_[T7C]_F4.1_[T8G]_[A9C]_T4.1 (ssRNA)", "RNA": "B1 RNA with C29A, G30C, C31G"}},
  "biological_target": "T1, PUF4 RNA-binding domain (Saccharomyces cerevisiae, UniProt P25339 537-888)",
  "T1 sequence": "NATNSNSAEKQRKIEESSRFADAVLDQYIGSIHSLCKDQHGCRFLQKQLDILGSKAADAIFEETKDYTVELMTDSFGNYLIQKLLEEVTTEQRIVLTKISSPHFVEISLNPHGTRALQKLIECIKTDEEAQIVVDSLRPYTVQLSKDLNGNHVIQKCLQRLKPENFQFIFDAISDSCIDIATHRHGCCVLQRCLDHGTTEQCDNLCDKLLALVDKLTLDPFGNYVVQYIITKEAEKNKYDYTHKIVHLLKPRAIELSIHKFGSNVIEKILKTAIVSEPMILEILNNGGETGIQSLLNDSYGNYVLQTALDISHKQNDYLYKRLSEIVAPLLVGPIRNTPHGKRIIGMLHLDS",
  "experiment": "Mg; RNA-MaP; 20 mM Na-HEPES pH 7.4, 30 mM KOAc, 0.75 mM MgCl2, 0.1% Tween-20, 5% glycerol, 0.1 mg/mL BSA, 2 mM DTT; 25 C; 0.0125-409.6 nM protein",
  "conditions": "tags: N-His6-TEV cleaved; C-SNAP kept, Cy3B-labelled; label: tethered on chip by stalled RNA polymerase",
  "note": "Changes are numbered by the printed parent chain. In names and notes the source's numbering stands.",
  "data": [
    {"binder": "UCUCUUUGUAAAUGAUCUCUU (ssRNA)", "note": "[Ib_S1_P4E.1_K4.1_C4.1_H4.1_A4.1_[T5A]_F4.1_[T8G]_T4.1]", "values": [
      {"measurement": "Kd", "result": 113, "unit": "nM"}
    ]},
    {"binder": "UCUCUUUGUAAAUCAUCUCUU (ssRNA)", "note": "[Ib_S1_P4E.1_K4.1_C4.1_H4.1_A4.1_[T5A]_F4.1_[T8C]_T4.1]", "values": [
      {"measurement": "Kd", "result": 39.1, "unit": "nM"}
    ]},
    {"binder": "UCUCUUUGUAUCUGAUCUCUU (ssRNA)", "note": "[Ic_S1_P4E.1_K4.1_C4.1_H4.1_A4.1_[A6C]_F4.1_[T8G]_T4.1]", "values": [
      {"measurement": "Kd", "result": 76.5, "unit": "nM"}
    ]},
    {"binder": "UCUCUUUGUACAUAAUCUCUU (ssRNA)", "note": "[Ic_S1_P4E.1_K4.1_C4.1_H4.1_A4.1_[T5C]_F4.1_[T8A]_T4.1]", "values": [
      {"measurement": "Kd", "result": 6.09, "unit": "nM"}
    ]},
    {"binder": "UCUCUUUGUACAUCAUCUCUU (ssRNA)", "note": "[Ic_S1_P4E.1_K4.1_C4.1_H4.1_A4.1_[T5C]_F4.1_[T8C]_T4.1]", "values": [
      {"measurement": "Kd", "result": 8.45, "unit": "nM"}
    ]},
    {"binder": "B1", "values": [
      {"measurement": "Kd", "result": 973, "unit": "nM"}
    ]},
    {"binder": "B2", "values": [
      {"measurement": "Kd", "result": 1190, "unit": "nM"}
    ]},
    {"binder": "B3", "values": [
      {"measurement": "Kd", "result": 6.37, "unit": "nM"}
    ]},
    {"binder": "B4", "values": [
      {"measurement": "Kd", "result": 23.3, "unit": "nM"}
    ]},
    {"binder": "B5", "values": [
      {"measurement": "Kd", "result": 3.86, "unit": "nM"}
    ]},
    {"binder": "B6", "values": [
      {"measurement": "Kd", "result": 4.54, "unit": "nM"}
    ]},
    {"binder": "B7", "values": [
      {"measurement": "Kd", "result": 31.2, "unit": "nM"}
    ]},
    {"binder": "B8", "values": [
      {"measurement": "Kd", "result": 45.5, "unit": "nM"}
    ]},
    {"binder": "B9", "values": [
      {"measurement": "Kd", "result": 975, "unit": "nM"}
    ]},
    {"binder": "B10", "values": [
      {"measurement": "Kd", "result": 786, "unit": "nM"}
    ]},
    {"binder": "B11", "values": [
      {"measurement": "Kd", "result": 96.2, "unit": "nM"}
    ]},
    {"binder": "B12", "values": [
      {"measurement": "Kd", "result": 1370, "unit": "nM"}
    ]},
    {"binder": "B13", "values": [
      {"measurement": "Kd", "result": 75.8, "unit": "nM"}
    ]},
    {"binder": "B14", "values": [
      {"measurement": "Kd", "result": 54.6, "unit": "nM"}
    ]},
    {"binder": "B15", "values": [
      {"measurement": "Kd", "result": 10.8, "unit": "nM"}
    ]},
    {"binder": "B16", "values": [
      {"measurement": "Kd", "result": 47.1, "unit": "nM"}
    ]},
    {"binder": "B17", "values": [
      {"measurement": "Kd", "result": 94.5, "unit": "nM"}
    ]},
    {"binder": "B18", "values": [
      {"measurement": "Kd", "result": 9.03, "unit": "nM"}
    ]},
    {"binder": "B19", "values": [
      {"measurement": "Kd", "result": 150, "unit": "nM"}
    ]},
    {"binder": "B20", "values": [
      {"measurement": "Kd", "result": 151, "unit": "nM"}
    ]},
    {"binder": "B21", "values": [
      {"measurement": "Kd", "result": 15.7, "unit": "nM"}
    ]},
    {"binder": "B22", "values": [
      {"measurement": "Kd", "result": 22.9, "unit": "nM"}
    ]},
    {"binder": "B23", "values": [
      {"measurement": "Kd", "result": 138, "unit": "nM"}
    ]},
    {"binder": "B24", "values": [
      {"measurement": "Kd", "result": 90.1, "unit": "nM"}
    ]}
  ]
}
